In experiment [1] the target is T1, human αvβ5 expressed on BaF3 cells (stably transfected with human αv and β5 subunits) (human, UniProt P06756 31-1048; P18084 24-799).
T1 construct: also called αvβ5-BaF3; BaF3-hu αvβ5
Nature of the experiment: FACS on αvβ5-BaF3 cells, unpurified antibody. On the procedure:
FACS Binding Assay: Cells were washed one time in PBS, and then resuspended in FACS buffer (1×PBS, 1% BSA, 1 mM CaCl₂, and 1 mM MgCl₂). 1×10⁶ cells were then incubated on ice for 1 hr in FACS buffer containing the test antibody in a total volume of 50 μl. After incubation, the cells were washed two times with ice cold FACS buffer, resuspended in 50 μl of FACS buffer containing 3 μg/ml goat anti-mouse IgG AlexaFluor488 (Jackson ImmunoResearch), and incubated on ice for 30 min. The cells were then washed twice with ice cold FACS buffer and fixed in 1% PFA overnight. Cell aggregates were removed by filtering through 40 μm filter plates (Millipore) and binding of the labeled secondary antibody was monitored by flow cytometry using a FACS Calibur (BD Biosciences).
(§1) Screening of all combinations of heavy chain versions VH0, VH1, VH2, VH3, VH4, or VH5, with light chains VL0, VL1, VL2, or VL3 was carried out using unpurified proteins in conditioned cell media. The binding of each construct to biotin-conjugated human αvβ5 protein was determined using a solid-phase binding assay (ELISA) and by FACS, and the ability of each construct to block ligand binding was determined using a vitronectin cell adhesion assay (Table 1).

Experiment [2] has as its target T2, human soluble αvβ5 protein (extracellular domains of human αv and β5 integrin subunits) (human, UniProt P06756 31-992; P18084 24-719).
T2 construct: also called biotin-αvβ5; hsαvβ5
The experiment in a line: ELISA, biotin-αvβ5 on streptavidin plate, unpurified antibody. How it is done:
Solid-Phase αvβ5 Binding Assay (ELISA): A 96-well microtiter plate was precoated with streptavidin (Thermo Scientific Reacti-Bind StreptAvidin Coated High Binding Capacity plate) was used. Biotinylated soluble αvβ5 protein (2 μg/mL) in TBS with 1% BSA was added to the wells, and the plate was incubated for 1 hr at 25° C. The plate was washed with wash buffer (0.05% Tween-20 in PBS), and purified humanized ALULA antibody in TBS containing 1% BSA, 1 mM CaCl2, and 1 mM MgCl2 were added (50 μl/well). The plate was incubated for 1 hr at 25° C., washed, and then incubated for 1 hr with 50 μl/well of […] goat anti-human secondary antibody. Bound antibody was detected using 3,3′,5,5′-tetramethylbenzidine (TMB). Binding was indicated by the absorbency measured at 450 nm.
as §1
On the technique in general: In an ELISA, binding on a coated surface is turned into a signal by an enzyme label.

Experiment [3] has as its target T1, human αvβ5 expressed on BaF3 cells …. The experiment in a line: cell-based or functional assay.

The values below come from US20170362324A1 (Biogen, published 2017).

T1 sequence (P06756 31-1048 limits assumed, chain 1 of 2): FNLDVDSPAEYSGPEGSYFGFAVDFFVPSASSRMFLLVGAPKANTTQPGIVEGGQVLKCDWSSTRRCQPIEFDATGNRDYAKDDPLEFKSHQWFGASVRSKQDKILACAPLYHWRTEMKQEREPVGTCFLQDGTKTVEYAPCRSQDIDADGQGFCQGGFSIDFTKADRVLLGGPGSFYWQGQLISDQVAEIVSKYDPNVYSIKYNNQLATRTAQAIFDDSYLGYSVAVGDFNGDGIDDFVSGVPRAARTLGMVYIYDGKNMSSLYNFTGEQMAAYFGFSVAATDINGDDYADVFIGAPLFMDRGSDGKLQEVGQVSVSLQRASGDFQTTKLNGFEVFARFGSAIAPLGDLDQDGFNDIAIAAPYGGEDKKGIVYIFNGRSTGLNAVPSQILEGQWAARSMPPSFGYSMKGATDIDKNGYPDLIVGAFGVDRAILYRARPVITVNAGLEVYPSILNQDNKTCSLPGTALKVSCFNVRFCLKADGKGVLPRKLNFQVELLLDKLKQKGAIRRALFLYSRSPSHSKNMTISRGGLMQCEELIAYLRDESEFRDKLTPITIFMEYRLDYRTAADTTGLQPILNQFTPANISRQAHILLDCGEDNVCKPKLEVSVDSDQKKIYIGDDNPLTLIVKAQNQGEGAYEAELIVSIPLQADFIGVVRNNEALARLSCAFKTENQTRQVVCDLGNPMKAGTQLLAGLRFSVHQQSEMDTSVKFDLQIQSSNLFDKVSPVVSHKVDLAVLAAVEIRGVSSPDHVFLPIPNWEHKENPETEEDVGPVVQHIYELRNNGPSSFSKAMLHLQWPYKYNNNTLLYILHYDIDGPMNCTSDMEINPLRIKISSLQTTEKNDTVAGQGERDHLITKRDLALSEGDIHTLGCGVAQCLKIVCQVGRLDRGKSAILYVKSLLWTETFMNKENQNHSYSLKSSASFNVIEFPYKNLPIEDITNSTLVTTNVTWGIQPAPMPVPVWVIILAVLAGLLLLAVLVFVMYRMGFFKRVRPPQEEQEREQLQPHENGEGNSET
T1 sequence (P18084 24-799 limits assumed, chain 2 of 2): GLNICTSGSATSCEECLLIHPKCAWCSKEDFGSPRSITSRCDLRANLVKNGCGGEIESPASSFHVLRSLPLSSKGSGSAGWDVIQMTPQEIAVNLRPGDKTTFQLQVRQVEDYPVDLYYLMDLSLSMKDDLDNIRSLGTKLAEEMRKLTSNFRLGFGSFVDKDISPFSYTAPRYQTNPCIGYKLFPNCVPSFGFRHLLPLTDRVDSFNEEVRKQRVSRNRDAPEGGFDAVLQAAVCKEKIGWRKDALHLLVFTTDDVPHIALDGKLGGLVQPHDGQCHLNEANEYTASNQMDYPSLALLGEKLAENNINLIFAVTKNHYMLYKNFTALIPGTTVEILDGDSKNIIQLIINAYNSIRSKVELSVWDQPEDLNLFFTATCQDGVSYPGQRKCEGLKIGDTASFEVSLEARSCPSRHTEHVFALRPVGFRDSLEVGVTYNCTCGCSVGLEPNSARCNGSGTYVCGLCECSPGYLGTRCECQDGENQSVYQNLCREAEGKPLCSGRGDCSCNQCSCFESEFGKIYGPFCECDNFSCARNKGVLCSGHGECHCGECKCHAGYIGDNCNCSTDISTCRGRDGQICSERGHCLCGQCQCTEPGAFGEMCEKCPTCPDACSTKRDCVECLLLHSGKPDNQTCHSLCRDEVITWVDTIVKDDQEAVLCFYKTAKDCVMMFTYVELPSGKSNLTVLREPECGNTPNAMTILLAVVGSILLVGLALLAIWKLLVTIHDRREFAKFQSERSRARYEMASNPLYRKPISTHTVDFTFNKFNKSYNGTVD
T2 sequence (P06756 31-992 limits assumed, chain 1 of 2): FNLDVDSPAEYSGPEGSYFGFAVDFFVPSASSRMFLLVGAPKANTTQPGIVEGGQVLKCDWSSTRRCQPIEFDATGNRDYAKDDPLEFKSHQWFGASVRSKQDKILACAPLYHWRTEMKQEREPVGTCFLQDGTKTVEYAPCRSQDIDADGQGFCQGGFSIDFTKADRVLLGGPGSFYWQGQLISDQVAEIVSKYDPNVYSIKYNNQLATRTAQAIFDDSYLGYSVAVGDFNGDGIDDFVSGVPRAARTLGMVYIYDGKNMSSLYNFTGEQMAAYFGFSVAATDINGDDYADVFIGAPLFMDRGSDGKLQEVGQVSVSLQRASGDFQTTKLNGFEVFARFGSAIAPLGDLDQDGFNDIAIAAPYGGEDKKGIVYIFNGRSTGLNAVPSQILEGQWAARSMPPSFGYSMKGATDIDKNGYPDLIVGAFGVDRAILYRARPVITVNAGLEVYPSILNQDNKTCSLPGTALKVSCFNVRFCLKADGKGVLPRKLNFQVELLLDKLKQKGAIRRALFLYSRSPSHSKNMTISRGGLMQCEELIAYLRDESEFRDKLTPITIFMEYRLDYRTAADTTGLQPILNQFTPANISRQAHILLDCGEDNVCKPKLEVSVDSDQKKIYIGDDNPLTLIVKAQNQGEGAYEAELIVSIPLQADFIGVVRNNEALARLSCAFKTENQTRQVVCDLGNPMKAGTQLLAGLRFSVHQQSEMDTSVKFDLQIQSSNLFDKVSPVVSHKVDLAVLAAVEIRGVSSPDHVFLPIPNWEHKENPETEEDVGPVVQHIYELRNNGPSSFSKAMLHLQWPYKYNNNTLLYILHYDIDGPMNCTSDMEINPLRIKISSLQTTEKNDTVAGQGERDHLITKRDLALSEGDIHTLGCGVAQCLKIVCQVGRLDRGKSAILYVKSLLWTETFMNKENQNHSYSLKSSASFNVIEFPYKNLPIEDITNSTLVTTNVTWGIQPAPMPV
T2 sequence (P18084 24-719 limits assumed, chain 2 of 2): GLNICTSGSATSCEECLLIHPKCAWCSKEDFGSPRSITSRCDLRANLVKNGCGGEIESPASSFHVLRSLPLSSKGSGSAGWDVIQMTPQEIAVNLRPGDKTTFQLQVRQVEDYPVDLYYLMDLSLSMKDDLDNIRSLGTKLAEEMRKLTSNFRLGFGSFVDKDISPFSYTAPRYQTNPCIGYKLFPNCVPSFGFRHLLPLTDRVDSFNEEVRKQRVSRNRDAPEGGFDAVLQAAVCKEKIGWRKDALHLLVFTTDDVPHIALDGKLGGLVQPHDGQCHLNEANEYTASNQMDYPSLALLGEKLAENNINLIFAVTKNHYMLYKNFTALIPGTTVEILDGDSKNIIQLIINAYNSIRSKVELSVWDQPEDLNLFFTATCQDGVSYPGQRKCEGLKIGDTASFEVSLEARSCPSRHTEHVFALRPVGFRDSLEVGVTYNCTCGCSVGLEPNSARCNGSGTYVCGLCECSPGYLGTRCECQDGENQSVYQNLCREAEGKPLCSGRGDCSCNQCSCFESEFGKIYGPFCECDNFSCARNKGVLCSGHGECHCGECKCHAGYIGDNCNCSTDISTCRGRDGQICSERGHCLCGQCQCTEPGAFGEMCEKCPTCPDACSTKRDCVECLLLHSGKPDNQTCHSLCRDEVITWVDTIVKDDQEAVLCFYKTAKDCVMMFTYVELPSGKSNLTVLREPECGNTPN

B1: VH1/VL0 Agly-hIgG1(T299A) (antibody, V domains shown)
VH: EVQVVESGGGLVKPGGSLRLSCAASGYTFTSYWMHWVRQAPGKGLEWVGAIYPGNSDTSYNQKFKGRFTISADTSKNTLYLQMNSLKTEDTAVYYCTTTTYGYDWFAYWGQGTLVTVSS
VL: DIQMTQSPSSVSASVGDRVTITCKSSQSVLYSSNQKNYLAWYQQKPGKAPKLLIYWASTRESGVPSRFSGSGSGTDFTLTISSLQPEDFATYYCHQYLSSLTFGQGTKVEIK
notes: also called H1/L0
As for B1, the 50% effective concentration (EC50) was 3680 nM in experiment [1] and 1 nM in experiment [2]. The “VN adhesion inhibition, αvβ5-BaF3 (IC50, nM)” value (shortened to “VN adhesion inhibition”) in experiment [3] came out at 3300 nM.

B2: VH0/VL2 Agly-hIgG1(T299A) (antibody, V domains shown)
VH: EVQLVESGGGLVKPGGSLRLSCAASGYTFTSYWMHWVRQAPGKGLEWVGAIYPGNSDTSYNQKFKGRFTISRDDSKNTLYLQMNSLKTEDTAVYYCTTTTYGYDWFAYWGQGTLVTVSS
VL: NIQMTQSPSSLSASVGDRVTMSCKSSQSVLYSSNQKNYLAWYQQKPGKSPKLLIYWASTRESGVPDRFTGSGSGTDFTLTISSLQPEDFATYYCHQYLSSLTFGQGTKLEIK
notes: also called H0/L2
Regarding B2, the concentration for a half-maximal effect (EC50) turned out to be 855 nM in experiment [1] and 1 nM in experiment [2]. The “VN adhesion inhibition” value in experiment [3] was found to be 1970 nM.

B3: VH1/VL3 Agly-hIgG1(T299A) (antibody, V domains shown)
VH: EVQVVESGGGLVKPGGSLRLSCAASGYTFTSYWMHWVRQAPGKGLEWVGAIYPGNSDTSYNQKFKGRFTISADTSKNTLYLQMNSLKTEDTAVYYCTTTTYGYDWFAYWGQGTLVTVSS
VL: DIQMTQSPSSLTVSVGDRVTMSCKSSQSVLYSSNQKNYLAWYQQKPGKSPKLLIYWASTRESGVPDRFTGSGSGTDFTLTISSVQPEDFATYYCHQYLSSLTFGAGTKLEIK
notes: also called H1/L3
On to B3, for which the EC50 is 2930 nM in experiment [1] and 2.9 nM in experiment [2]. Moreover, in experiment [3], the “VN adhesion inhibition” value amounted to 1840 nM.

B4: VH0/VL3 Agly-hIgG1(T299A) (antibody, V domains shown)
VH: EVQLVESGGGLVKPGGSLRLSCAASGYTFTSYWMHWVRQAPGKGLEWVGAIYPGNSDTSYNQKFKGRFTISRDDSKNTLYLQMNSLKTEDTAVYYCTTTTYGYDWFAYWGQGTLVTVSS
VL: DIQMTQSPSSLTVSVGDRVTMSCKSSQSVLYSSNQKNYLAWYQQKPGKSPKLLIYWASTRESGVPDRFTGSGSGTDFTLTISSVQPEDFATYYCHQYLSSLTFGAGTKLEIK
notes: also called H0/L3
Regarding B4, the concentration giving a half-maximal response (EC50) was 1270 nM in experiment [1] and 0.9 nM in experiment [2]. In addition, the “VN adhesion inhibition” value in experiment [3] turned out to be 494 nM.

B5: VH1/VL1 Agly-hIgG1(T299A) (antibody, V domains shown)
VH: EVQVVESGGGLVKPGGSLRLSCAASGYTFTSYWMHWVRQAPGKGLEWVGAIYPGNSDTSYNQKFKGRFTISADTSKNTLYLQMNSLKTEDTAVYYCTTTTYGYDWFAYWGQGTLVTVSS
VL: DIQMTQSPSSLSASVGDRVTMTCKSSQSVLYSSNQKNYLAWYQQKPGKAPKLLIYWASTRESGVPDRFSGSGSGTDFTLTISSLQPEDFATYYCHQYLSSLTFGQGTKLEIK
notes: also called H1/L1
For the molecule B5, the EC50 amounted to 3360 nM in experiment [1] and 1.9 nM in experiment [2]. In addition, in experiment [3], the “VN adhesion inhibition” value was 2520 nM.

B6: VH5/VL3 Agly-hIgG1(T299A) (antibody, V domains shown)
VH: EVQVQQSGGGLVKPGGSLRLSCKASGYTFTSYWMHWVKQAPGKGLEWVGAIYPGNSDTSYNQKFKGKATLSAVTSPNTAYLQMNSLKTEDTAVYYCTTTTYGYDWFAYWGQGTLVTVSS
VL: DIQMTQSPSSLTVSVGDRVTMSCKSSQSVLYSSNQKNYLAWYQQKPGKSPKLLIYWASTRESGVPDRFTGSGSGTDFTLTISSVQPEDFATYYCHQYLSSLTFGAGTKLEIK
notes: also called H5/L3
Take B6: the 50% effective concentration (EC50) in experiment [1] came out at 422 nM; in experiment [2], 1.4 nM. Besides, the “VN adhesion inhibition” value in experiment [3] worked out at 72.2 nM.

B7: VH2/VL3 Agly-hIgG1(T299A) (antibody, V domains shown)
VH: EVQVVQSGGGLVKPGESLRLSCAASGYTFTSYWMHWVKQAPGKGLEWVGAIYPGNSDTSYNQKFKGKFTISADTSSNTAYLQMNSLKTEDTAVYYCTTTTYGYDWFAYWGQGTLVTVSS
VL: DIQMTQSPSSLTVSVGDRVTMSCKSSQSVLYSSNQKNYLAWYQQKPGKSPKLLIYWASTRESGVPDRFTGSGSGTDFTLTISSVQPEDFATYYCHQYLSSLTFGAGTKLEIK
notes: also called H2/L3
As to B7, the 50% effective concentration (EC50) came to 990 nM in experiment [1] and 1 nM in experiment [2]. In addition, the “VN adhesion inhibition” value in experiment [3] is 303 nM.

B8: VH3/VL3 Agly-hIgG1(T299A) (antibody, V domains shown)
VH: EVQVVESGGGLVKPGGSLRLSCKASGYTFTSYWMHWVKQAPGKGLEWVGAIYPGNSDTSYNQKFKGKFTLSAVTSSNTAYLQMNSLKTEDTAVYYCTTTTYGYDWFAYWGQGTLVTVSS
VL: DIQMTQSPSSLTVSVGDRVTMSCKSSQSVLYSSNQKNYLAWYQQKPGKSPKLLIYWASTRESGVPDRFTGSGSGTDFTLTISSVQPEDFATYYCHQYLSSLTFGAGTKLEIK
notes: also called H3/L3
As to B8, the EC50 in experiment [1] came out at 6290 nM; in experiment [2] it was 1.2 nM. Also, the “VN adhesion inhibition” value in experiment [3] is 227 nM.

B9: VH4/VL3 Agly-hIgG1(T299A) (antibody, V domains shown)
VH: EVQVVQSGGGLVKPGESLRLSCKASGYTFTSYWMHWVKQAPGKGLEWVGAIYPGNSDTSYNQKFKGKFTISADTSPNTAYLQMNSLKTEDTAVYYCTTTTYGYDWFAYWGQGTLVTVSS
VL: DIQMTQSPSSLTVSVGDRVTMSCKSSQSVLYSSNQKNYLAWYQQKPGKSPKLLIYWASTRESGVPDRFTGSGSGTDFTLTISSVQPEDFATYYCHQYLSSLTFGAGTKLEIK
notes: also called H4/L3
For B9, the concentration giving a half-maximal response (EC50) in experiment [1] amounted to 162 nM; in experiment [2] it was 1.7 nM. Further, the “VN adhesion inhibition” value in experiment [3] came to 64.8 nM.

B10: VH2/VL1 Agly-hIgG1(T299A) (antibody, V domains shown)
VH: EVQVVQSGGGLVKPGESLRLSCAASGYTFTSYWMHWVKQAPGKGLEWVGAIYPGNSDTSYNQKFKGKFTISADTSSNTAYLQMNSLKTEDTAVYYCTTTTYGYDWFAYWGQGTLVTVSS
VL: DIQMTQSPSSLSASVGDRVTMTCKSSQSVLYSSNQKNYLAWYQQKPGKAPKLLIYWASTRESGVPDRFSGSGSGTDFTLTISSLQPEDFATYYCHQYLSSLTFGQGTKLEIK
notes: also called H2/L1
With B10, the EC50 was 405 nM in experiment [1] and 1 nM in experiment [2]. Further, the “VN adhesion inhibition” value in experiment [3] is 318 nM.

B11: VH3/VL1 Agly-hIgG1(T299A) (antibody, V domains shown)
VH: EVQVVESGGGLVKPGGSLRLSCKASGYTFTSYWMHWVKQAPGKGLEWVGAIYPGNSDTSYNQKFKGKFTLSAVTSSNTAYLQMNSLKTEDTAVYYCTTTTYGYDWFAYWGQGTLVTVSS
VL: DIQMTQSPSSLSASVGDRVTMTCKSSQSVLYSSNQKNYLAWYQQKPGKAPKLLIYWASTRESGVPDRFSGSGSGTDFTLTISSLQPEDFATYYCHQYLSSLTFGQGTKLEIK
notes: also called H3/L1
Take B11: the 50% effective concentration (EC50) came out at 1930 nM in experiment [1] and 1.2 nM in experiment [2]. Also, the “VN adhesion inhibition” value in experiment [3] turned out to be 360 nM.

B12: VH1/VL2 Agly-hIgG1(T299A) (antibody, V domains shown)
VH: EVQVVESGGGLVKPGGSLRLSCAASGYTFTSYWMHWVRQAPGKGLEWVGAIYPGNSDTSYNQKFKGRFTISADTSKNTLYLQMNSLKTEDTAVYYCTTTTYGYDWFAYWGQGTLVTVSS
VL: NIQMTQSPSSLSASVGDRVTMSCKSSQSVLYSSNQKNYLAWYQQKPGKSPKLLIYWASTRESGVPDRFTGSGSGTDFTLTISSLQPEDFATYYCHQYLSSLTFGQGTKLEIK
notes: also called H1/L2
In the case of B12, the results for the EC50 in experiment [1] and in experiment [2] were 5370 nM and 2.3 nM, respectively. For the same molecule, the “VN adhesion inhibition” value in experiment [3] turned out to be 1730 nM.

For orientation: EC50 means the concentration giving half of the maximal effect.
